1 molecule from article PMC8816346 (Science Advances, 2022) can be followed below.

In the test the target is TOPBP1, purified recombinant (human, UniProt Q92547 1-1522). The test can be described thus: pull-down.
TOPBP1, purified recombinant, sequence (Q92547 whole entry): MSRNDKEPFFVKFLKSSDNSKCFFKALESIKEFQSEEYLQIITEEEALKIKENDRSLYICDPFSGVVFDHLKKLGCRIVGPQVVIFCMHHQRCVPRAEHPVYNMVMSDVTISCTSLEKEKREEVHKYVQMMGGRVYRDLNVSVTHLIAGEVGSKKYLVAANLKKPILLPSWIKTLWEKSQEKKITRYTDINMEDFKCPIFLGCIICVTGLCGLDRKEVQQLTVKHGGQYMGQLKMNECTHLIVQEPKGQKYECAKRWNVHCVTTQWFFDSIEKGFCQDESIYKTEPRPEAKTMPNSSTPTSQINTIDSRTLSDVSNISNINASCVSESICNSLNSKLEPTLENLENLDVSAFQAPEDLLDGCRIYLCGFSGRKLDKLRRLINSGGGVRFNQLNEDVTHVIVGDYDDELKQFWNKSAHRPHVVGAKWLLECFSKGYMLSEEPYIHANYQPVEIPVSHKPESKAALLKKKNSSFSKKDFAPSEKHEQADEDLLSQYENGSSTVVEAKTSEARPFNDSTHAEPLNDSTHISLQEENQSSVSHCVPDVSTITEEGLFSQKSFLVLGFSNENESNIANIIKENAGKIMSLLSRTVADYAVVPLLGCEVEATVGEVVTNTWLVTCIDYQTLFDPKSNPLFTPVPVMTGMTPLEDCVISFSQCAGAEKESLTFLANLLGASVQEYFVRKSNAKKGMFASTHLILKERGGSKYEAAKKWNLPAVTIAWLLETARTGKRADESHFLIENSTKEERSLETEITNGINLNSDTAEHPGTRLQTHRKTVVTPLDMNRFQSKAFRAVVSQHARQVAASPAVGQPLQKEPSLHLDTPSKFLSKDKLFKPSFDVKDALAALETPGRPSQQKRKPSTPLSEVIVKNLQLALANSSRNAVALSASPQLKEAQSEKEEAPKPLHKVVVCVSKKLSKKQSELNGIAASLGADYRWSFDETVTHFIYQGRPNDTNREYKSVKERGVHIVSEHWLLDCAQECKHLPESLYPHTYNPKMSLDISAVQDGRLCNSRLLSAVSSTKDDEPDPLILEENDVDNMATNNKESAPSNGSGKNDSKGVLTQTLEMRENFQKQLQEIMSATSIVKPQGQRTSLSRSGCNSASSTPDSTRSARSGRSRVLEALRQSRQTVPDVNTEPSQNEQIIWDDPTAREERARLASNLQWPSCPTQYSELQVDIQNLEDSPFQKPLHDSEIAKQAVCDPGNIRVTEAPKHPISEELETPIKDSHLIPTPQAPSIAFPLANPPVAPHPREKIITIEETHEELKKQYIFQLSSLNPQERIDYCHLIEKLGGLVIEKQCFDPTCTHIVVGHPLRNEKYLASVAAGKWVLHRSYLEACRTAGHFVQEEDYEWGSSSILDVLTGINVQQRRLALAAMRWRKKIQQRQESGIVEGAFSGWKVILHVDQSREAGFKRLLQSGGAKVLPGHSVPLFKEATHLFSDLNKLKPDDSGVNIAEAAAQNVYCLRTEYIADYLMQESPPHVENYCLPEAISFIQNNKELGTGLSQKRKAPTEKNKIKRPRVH

B1: BLM^λ (BLM^P dephosphorylated with λ-phosphatase) (natural protein)
chain: not shown
As to B1, the binding result is “binds”.
